{
  "source": "patent US20020062500A1",
  "about": "“Hypersensitive response eliciting domains and use thereof” (priority 2000, published 2002)",
  "key": {"[1]": {"settings": "description of known elicitors; cited from earlier work"}, "[2]": {"assay": "Solubility of expressed or synthesized polypeptides", "assay_type": "physicochemical", "experimental": "For proteins expressed in E. coli that were difficult to dissolve in water, total cells were resuspended and sonicated in 8 M urea buffer (0. IM Na-phosphate, 10 mM Tris buffer, pH8.0). The total cell lysate was centrifuged, and supernatants were collected. Ni-agarose was added into the supernatants and mixed gently at room temperature for 30 min. The Ni-agarose resin was washed with buffer (8 M urea, 0.1 M Na-phosphate, 10 mM Tris buffer, pH6.3). The proteins were eluted with elution buffer (8 M urea, 0.1 M EDTA, 0.1 M Na-phosphate, 10 mM Tris buffer, pH 6.3) and dialyzed against buffer (pH 8.5, 10 mM Tris) with stepwise decreased urea. If the proteins still were insoluble in buffer, the solution pH was adjusted to 9 to 11 and sonicated at room temperature for 1 to 5 min.\nChemically synthesized polypeptides were dissolved in 10 mM Tris, pH 6.5 to 11 buffers depending on their solubility."}, "[3]": {"settings": "cited from earlier work; for heat stable (description): description of known elicitors"}, "[4]": {"settings": "description of known elicitors; cited from earlier work", "remark": "listed apart in the source"}, "[5]": {"tested_on": "tobacco leaves (cv. Xanth)", "settings": "in vivo"}, "tobacco": {"tested_on": "tobacco", "settings": "in vivo; cited from earlier work"}, "TMV": {"tested_on": "TMV", "assay": "Percentage of TMV reduction on tobacco leaves", "assay_type": "in vivo"}, "tomato": {"tested_on": "tomato", "assay": "Plant growth enhancement with tomato", "assay_type": "in vivo", "settings": "10 μg/ml"}},
  "note": "Ends that are not written are not given here. Peptide text beside a SMILES is read from it.",
  "data": [
    {"molecule": "SEQ. ID. No. 8: Protein encoded by the dspE gene of Erwinia amylovora, about 198 kDa", "values": [
      {"measurement": "pI (description)", "setting": "[1]", "result": 8.98}
    ]},
    {"molecule": "CSCC[C@H](NC(=O)[C@H](CCSC)NC(=O)[C@H](CO)NC(=O)[C@H](CCSC)NC(=O)[C@H](CCSC)NC(=O)[C@H](CCSC)NC(=O)[C@H](CCSC)NC(=O)[C@H](CCSC)NC(=O)CNC(=O)[C@@H](NC(=O)[C@H](CC(C)C)NC(=O)[C@H](CC(C)C)NC(=O)CNC(=O)[C@H](C)NC(=O)[C@H](CC(C)C)NC(=O)[C@H](CCC(N)=O)NC(=O)[C@H](CC(N)=O)NC(=O)[C@@H](NC(=O)[C@@H](NC(=O)[C@H](CC(=O)O)NC(=O)[C@H](CC(N)=O)NC(=O)[C@H](CCC(N)=O)NC(=O)[C@H](CC(N)=O)NC(=O)CNC(=O)CNC(=O)CNC(=O)[C@H](CC(C)C)NC(=O)CN)[C@@H](C)O)C(C)C)[C@@H](C)O)C(=O)O", "note": "[HrpNEa4370] (H-GLGGGNQNDTVNQLAGLLTGMMMMMSMM-OH; N-terminus and C-terminus assumed)", "values": [
      {"measurement": "Solubility (Source column: Partial soluble)", "setting": "[2]; Table 4, synthesized peptide, cell wraps over two lines 'Partial' 'soluble'", "result": "Partial"}
    ]},
    {"molecule": "hypersensitive response elicitor polypeptide or protein from Xanthomonas campestris pv. pelargonii: 20 kDa elicitor that includes the amino acid sequence of SEQ. ID. No. 18 (SSQQSPSAGSEQQLDQLLAM; Xanthomonas campestris pv. pelargonii)", "values": [
      {"measurement": "heat stable (description)", "setting": "[3]", "result": "heat stable"},
      {"measurement": "protease sensitive", "setting": "[4]", "result": "protease sensitive"}
    ]},
    {"molecule": "(NC): Superharpin building block HrpNEa140-180 with his-tag leader (QNDDSTSGTDSTSDSSDPMQQLLKMFSEIMQSLFGDGQDGT; also: His-tag leader; UniProt Q01099 140-180, looked up, fragment)", "values": [
      {"measurement": "Soluble", "setting": "[2]; Table 7, building blocks with his-tag leader", "result": "Yes"}
    ]},
    {"molecule": "HrpNEa137180: E. coli expressed peptide, amino acids 137-180 of HrpNEa, His-tag fusion (STSQNDDSTSGTDSTSDSSDPMQQLLKMFSEIMQSLFGDGQDGT; also: His-tag fusion; UniProt Q01099 137-180, looked up, fragment)", "values": [
      {"measurement": "HR activity in tobacco", "setting": "[5]", "result": "elicit HR activity"},
      {"measurement": "HR* (eliciting concentration)", "setting": "[5]", "result": "<5", "unit": "µg/mL"}
    ]},
    {"molecule": "HrpNEa140176: Synthesized peptide, amino acids 140-176 of HrpNEa, acidic plus helix units (QNDDSTSGTDSTSDSSDPMQQLLKMFSEIMQSLFGDG; UniProt Q01099 140-176, looked up, fragment)", "values": [
      {"measurement": "HR activity (eliciting concentration)", "setting": "[5]", "result": "+ < 5 μg/ml"},
      {"measurement": "HR activity in tobacco", "setting": "[5]", "result": "full activity of HR"},
      {"measurement": "HR* (eliciting concentration)", "setting": "[5]", "result": "<5", "unit": "µg/mL"}
    ]},
    {"molecule": "98 residue of N-terminal HrpNEa fragment: Smallest bacterially produced HrpNEa peptide with HR-eliciting activity (Laby 1997) (protein, UniProt Q01099 1-98, looked up, fragment) MSLNTSGLGASTMQISIGGAGGNNGLLGTSRQNAGLGGNSALGLGGGNQNDTVNQLAGLLTGMMMMMSMMGGGGLMGGGLGGGLGNGLGGSGGLGEGL", "values": [
      {"measurement": "HR elicitation (literature)", "setting": "tobacco", "result": "displayed HR-eliciting activity"}
    ]},
    {"molecule": "amino acids 137 to 204 of HrpNEa: HR active fragment of HrpNEa isolated after digestion with protease (protein, UniProt Q01099 137-204, looked up, fragment) STSQNDDSTSGTDSTSDSSDPMQQLLKMFSEIMQSLFGDGQDGTQGSSSGGKQPTEGEQNAYKKGVTD", "values": [
      {"measurement": "HR elicitation (literature)", "setting": "tobacco", "result": "hypersensitive response active"}
    ]},
    {"molecule": "HrpWEa: Harpin protein from E. amylovora, subfamily W, 447 amino acids (protein, listed as Erwinia amylovora) MSILTLNNNTSSSPGLFQSGGDNGLGGHNANSALGQQPIDRQTIEQMAQLLAELLKSLLSPQSGNAATGAGGNDQTTGVGNAGGLNGRKGTAGTTPQSDSQNMLSEMGNNGLDQAITPDGQGGGQIGDNPLLKAMLKLIARMMDGQSDQFGQPGTGNNSASSGTSSSGGSPFNDLSGGKAPSGNSPSGNYSPVSTFSPPSTPTSPTSPLDFPSSPTKAAGGSTPVTDHPDPVGSAGIGAGNSVAFTSAGANQTVLHDTITVKAGQVFDGKGQTFTAGSELGDGGQSENQKPLFILEDGASLKNVTMGDDGADGIHLYGDAKIDNLHVTNVGEDAITVKPNSAGKKSHVEITNSSFEHASDKILQLNADTNLSVDNVKAKDFGTFVRTNGGQQGNWDLNLSHISAEDGKFSFVKSDSEGLNVNTSDISLGDVENHYKVPMSANLKVAE", "values": [
      {"measurement": "heat stable (description)", "setting": "[3]", "result": "heat stable"},
      {"measurement": "protease sensitive", "setting": "[4]", "result": "protease sensitive"}
    ]},
    {"molecule": "SEQ. ID. No. 10: Protein encoded by the dspF gene, about 16 kDa (protein, listed as Erwinia amylovora) MTSSQQRVERFLQYFSAGCKTPIHLKDGVCALYNEQDEEAAVLEVPQHSDSLLLHCRIIEADPQTSITLYSMLLQLNFEMAAMRGCWLALDELHNVRLCFQQSLEHLDEASFSDIVSGFIEHAAEVREYIAQLDESSAA", "values": [
      {"measurement": "pI (description)", "setting": "[1]", "result": 4.45}
    ]},
    {"molecule": "HrpNEa: Harpin hypersensitive response elicitor protein from E. amylovora, 403 amino acids (protein, listed as Erwinia amylovora) MSLNTSGLGASTMQISIGGAGGNNGLLGTSRQNAGLGGNSALGLGGGNQNDTVNQLAGLLTGMMMMMSMMGGGGLMGGGLGGGLGNGLGGSGGLGEGLSNALNDMLGGSLNTLGSKGGNNTTSTTNSPLDQALGINSTSQNDDSTSGTDSTSDSSDPMQQLLKMFSEIMQSLFGDGQDGTQGSSSGGKQPTEGEQNAYKKGVTDALSGLMGNGLSQLLGNGGLGGGQGGNAGTGLDGSSLGGKGLQNLSGPVDYQQLGNAVGTGIGMKAGIQALNDIGTHRHSSTRSFVNKGDRAMAKEIGQFMDQYPEVFGKPQYQKGPGQEVKTDDKSWAKALSKPDDDGMTPASMEQFNKAKGMIKRPMAGDTGNGNLQARGAGGSSLGIDAMMAGDAINNMALGKLGAA", "values": [
      {"measurement": "Elicit HR", "setting": "[5]", "result": "1—3 μg/ml"},
      {"measurement": "% TMV reduction on tobacco", "setting": "TMV; 1 μg/ml", "result": 10, "unit": "%"},
      {"measurement": "% TMV reduction on tobacco", "setting": "TMV; 10 μg/ml", "result": 55, "unit": "%"},
      {"measurement": "% Plant Growth Enhancement", "setting": "tomato", "result": 11.68, "unit": "%"},
      {"measurement": "Soluble", "setting": "[2]; Table 8", "result": "Yes"},
      {"measurement": "heat stable at 100° C.", "setting": "[3]; 100° C.", "result": "at least 10 minutes"},
      {"measurement": "pI (description)", "setting": "[1]", "result": "approximately 4.3"}
    ]},
    {"molecule": "HrpNEch: Harpin protein from E. chrysanthemi, subfamily N (protein, listed as Erwinia chrysanthemi) MQITIKAHIGGDLGVSGLGAQGLKGLNSAASSLGSSVDKLSSTIDKLTSALTSMMFGGALAQGLGASSKGLGMSNQLGQSFGNGAQGASNLLSVPKSGGDALSKMFDKALDDLLGHDTVTKLTNQSNQLANSMLNASQMTQGNMNAFGSGVNNALSSILGNGLGQSMSGFSQPSLGAGGLQGLSGAGAFNQLGNAIGMGVGQNAALSALSNVSTHVDGNNRHFVDKEDRGMAKEIGQFMDQYPEIFGKPEYQKDGWSSPKTDDKSWAKALSKPDDDGMTGASMDKFRQAMGMIKSAVAGDTGNTNLNLRGAGGASLGIDAAVVGDKIANMSLGKLANA", "values": [
      {"measurement": "heat stable (description)", "setting": "[3]", "result": "heat stable"}
    ]}
  ]
}
